# Experimental data published in patent US20150368340A1 (US Dept. of Health and Human Services, published 2015).
# T1: GPC3 C-terminal fragment (human, UniProt P51654 359-559, limits assumed)
# T1 construct: domain: C-terminal fragment; also called C-terminus alone
# T1 sequence (looked up): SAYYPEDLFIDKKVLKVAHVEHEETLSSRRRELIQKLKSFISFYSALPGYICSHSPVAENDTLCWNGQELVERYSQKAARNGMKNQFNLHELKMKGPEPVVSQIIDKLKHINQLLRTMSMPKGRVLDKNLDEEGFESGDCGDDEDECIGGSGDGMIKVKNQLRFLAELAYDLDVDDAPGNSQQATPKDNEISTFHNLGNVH
# B1: HN3-human Fc fusion protein (HN3-hFc) (Fc fusion, not shown: a dimerising Fc or GST)
# chain: QVQLVQSGGGLVQPGGSLRLSCAASYFDFDSYEMSWVRQAPGKGLEWIGSIYHSGSTYYNPSLKSRVTISRDNSKNTLYLQMNTLRAEDTATYYCARVNMDRFDYWGQGTLVTVSSS
# notes: also called HN3 human mAb
# B2: HN3(VH)-PE38 immunotoxin (other)
# chain: QVQLVQSGGGLVQPGGSLRLSCAASYFDFDSYEMSWVRQAPGKGLEWIGSIYHSGSTYYNPSLKSRVTISRDNSKNTLYLQMNTLRAEDTATYYCARVNMDRFDYWGQGTLVTVSSSAAKASGGPEGGSLAALTAHQACHLPLETFTRHRQPRGWEQLEQCGYPVQRLVALYLAARLSWNQVDQVIRNALASPGSGGDLGEAIREQPEQARLALTLAAAESERFVRQGTGNDEAGAANGPADSGDALLERNYPTGAEFLGDGGDVSFSTRGTQNWTVERLLQAHRQLEERGYVFVGYHGTFLEAAQSIVFGGVRARSQDLDAIWRGFYIAGDPALAYGYAQDQEPDARGRIRNGALLRVYVPRSSLPGFYRTSLTLAAPEAAGEVERLIGHPLPLRLDAITGPEEEGGRLETILGWPLAERTVVIPSAIPTDPRNVGGDLDPSSIPDKEQAISALPDYASQPGKPPREDLK
# B3: HN3 single-domain VH displayed on phage (clone HN3) (VHH)
# VHH: QVQLVQSGGGLVQPGGSLRLSCAASYFDFDSYEMSWVRQAPGKGLEWIGSIYHSGSTYYNPSLKSRVTISRDNSKNTLYLQMNTLRAEDTATYYCARVNMDRFDYWGQGTLVTVSS
# B4: HS20 human IgG (HS20 Wt mAb) (antibody, V domains shown)
# VH: EVQLLESGGGLVQPGGSLRLSCAASGFTFSSYAMSWVRQAPGKGLEWVSTIQKQGLPTEYADSVKGRFTISRDNSKNTLYLQMNSLRAEDTAVYYCAKNRAKFDYWGQGTLVTVSS
# VL: DIQMTQSPSSLSASVGDRVTITCRASQSISSYLNWYQQKPGKAPKLLIYNASMLQSGVPSRFSGSGSGTDFTLTISSLQPEDFATYYCQQNRGFPLTFGQGTKVEIK
# modifications: N-glycosylation site at residue 50 of SEQ ID NO: 16 (CDR2)
# notes: also called HS20 IgG; HS20 mAb
# What was measured:
# [1] = molecular target: cell surface-associated glypican-3 (GPC3) (human) (UniProt P51654); experiment: co-IP of GPC3 and Wnt3a from HepG2 xenograft tumor tissue after three weeks of 20 mg/kg HS20 (mutated form); blocked partner Wnt3a (FIG. 17B)
# [2] = molecular target: T2, cell surface-associated glypican-3 (GPC3) (human, UniProt P51654 25-554, two heparan sulfate (HS) chains on the C-terminal portion; GPI anchor); experiment: cell-based or functional assay
# [3] = molecular target: T2, cell surface-associated glypican-3 …; experiment: flow cytometry on G1 cells, HN3-hFc titrated, one-site binding fit (FIG. 4B)
# [4] = molecular target: T3, recombinant human GPC3 with His tag (GPC3-his) (human, UniProt P51654 25-559, heparan sulfate chains); experiment: ELISA, purified GPC3 coated at 1 µg/ml, HN3-hFc titrated, one-site binding fit (FIG. 4A)
# T3 construct: range 25-559; also called GPC3 alone; purified GPC3; not shown: six-histidine tag
# [5] = molecular target: T2, cell surface-associated glypican-3 …; experiment: cell-based or functional assay; remark: listed apart in the source
# [6] = molecular target: T4, GPC3 N-terminal fragment (human, UniProt P51654 25-358); experiment: phage ELISA on recombinant GPC3 fragments (FIG. 5B)
# T4 construct: domain: N-terminal fragment; also called N-terminus alone
# [7] = molecular target: T1, GPC3 C-terminal fragment; experiment: as above
# [8] = molecular target: cell surface-associated glypican-3 (GPC3) (human) (UniProt P51654); experiment: cell-based or functional assay
# [9] = molecular target: T3, recombinant human GPC3 with His tag …; experiment: ELISA on recombinant GPC3 protein (FIG. 13B)
# [10] = molecular target: T3, recombinant human GPC3 with His tag …; experiment: ELISA on recombinant GPC3 protein against HS molecules alone (FIG. 13B)
molecule,measurement,setting,value
HS20 Mt (HS20 IgG with the N-glycosylation site of the VL removed) (antibody),percent of the GPC3-Wnt3a interaction blocked,[1],70%
B1,"cell growth inhibition (WST-8), Hep3B cells, IC50",[2],~50000 ng/mL
same,"cell growth inhibition (WST-8), Huh-7 cells, IC50",[2],~50000 ng/mL
same,Kd,[3],0.15 nM
same,Kd,[4],0.64 nM
B2,"cytotoxicity IC50 (WST-8), G1 cells, molar",[2],0.0002 nM
same,"cytotoxicity IC50 (WST-8), Hep3B cells, molar",[2],0.0004 nM
same,"cytotoxicity IC50 (WST-8), HepG2 cells, molar",[2],10 nM
same,"cytotoxicity IC50 (WST-8), Huh-1 cells, molar",[2],0.0012 nM
same,"cytotoxicity IC50 (WST-8), Huh-7 cells, molar",[2],1.3 nM
same,"cytotoxicity IC50 (WST-8), G1 cells",[5],0.01 ng/mL
same,"cytotoxicity IC50 (WST-8), Hep3B cells",[5],0.02 ng/mL
same,"cytotoxicity IC50 (WST-8), HepG2 cells",[5],549 ng/mL
same,"cytotoxicity IC50 (WST-8), Huh-1 cells",[5],0.06 ng/mL
same,"cytotoxicity IC50 (WST-8), Huh-4 cells",[5],> 1000 ng/mL
same,"cytotoxicity IC50 (WST-8), Huh-7 cells",[5],64 ng/mL
B3,binding result,[6],no binding
same,binding result,[7],no binding
B4,"decrease in wound closure efficiency (wound healing assay, Hep3B cells, 50 µg/ml HS20)",[8],> 30%
same,Kd,[9],0.75 nM
same,fold stronger binding than on HS alone,[10],≥ 1000 fold
